Experiment: yeast display, Sf9 membrane polyspecificity reagent, FACS + sequencing; frameworks hold sequencing errors
Procedure, shortened: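 Galactose induction of a Saccharomyces cerevisiae BJ5465 synthetic nanobody display library ran 36–48 hours. The cells were then stained for 1 hour at 4 °C with 10% biotinylated, detergent-solubilized Sf9 membrane reagent, pulled down on streptavidin microbeads and FACS-sorted into low and high (top ~1%) gates on expression and reagent-binding fluorescence. Labels for polyreactivity follow the gate of origin.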

| Sequence | polyreactivity (PSR sort gate) |
| --- | --- |
| QVQLVESGGRLVQAGFSLRLSCAASGSTFRWYALGWYRQAPGIESELVAAITSGGRTYYADSVKGRFTISRDNAKNPVYLQMSSLKPEATAGYYCAAQYADRGKRDYWGQGTQVTGSS | high polyreactivity |
| QDQLVESGGGLVQAGGSLRLSCAASGLNFVRYAMGWYRQAPGKERELVATITWSGGTYYADSVKGRFTISRDNAKNTVYLQMNSLKPEDTAVSYCAADTPTPGLFYWFYPHRGYWGQGTQVTVSS | low polyreactivity |
| QVQLVESGGGLVQAGGSLRLSCAASGSTFVRYAMGWYRQAPGKERELVAAIDGGGTTKYADSVKGRFTISRDNAKNTVYLQMNSLKPEDTSVYYCAADQVWGYDSWGQGTQVTVSS | low polyreactivity |
| QVQLVESGGGLVQAGGSLRLSCAASGRTLQGYAMGWYRQEPGKERELVAAISRGGGSTYADSVKGRFTISRDNAKNTVYLQMNSLKPEDTAVYYCNKKSYYRYYWGQGTQVTVSS | high polyreactivity |
| QVQLVESGGGLVQAGGSLRLSFAASGSIFVGYAMGLYRQAPGKERELVAAISWSGDSTYYADSVKGRFTISRDNAKNTVYLQMYSLKPEDTAVPYCAVDPQQVRTLDYYVGYDYWGQGTQVTVSS | low polyreactivity |
| QVQLVESGGGLGQAGGSLRLSCAASGSTLNYYAMGWYTQAPGKERELVAAITWSGGSTSYADSVKGRFTISRDNAKNTVYLQMNSLKPEDTAVYYCATDFPTVQLYDTDWLSSDMGYWGQGTQVTVSS | low polyreactivity |
| QVQLVESGGGLVQAGGSLRLSCAASGRIFLGYTMGWYRQAPGKERELVAAISYSGGSTYYADSVKGRFTISRDYAKNTVYFQMNSLKPEDTAVYYCNKVYSIRGYWGQGTQVTVSS | high polyreactivity |
| QVQLQESGGGLVQAGGSLRLSCAASGSIFDGFNMGWNRQAPGKEREFVAAISYGASTYYADSVKGRFTVSRDNAKNCVYLQMNSLKPEDSAVYYCAVYDELYQVLVYWGRGTQVTVSS | low polyreactivity |
| QVQLVESGGGLVQAGGSLRLRCAASGRTFGPYTMGWYRQAPGKEREFVAAINSSGSRTYYADSVKGRFTISRDNAKNTVYLQMNSLKPEDTAVYYCAAEAKWYYSWSYPYEGDYWGQGTQVTVSS | low polyreactivity |
| QVQLVESGGGLVQAGGSLRLSCAASGITFYKKVMGWYRPAPGKEKELVAAISSSGGSTYYADSVKGRFTISRDNAKNTVYLQRNSLKPEDTAVYYCAADDPLYTPYEFDYWGQGTQVTVSS | low polyreactivity |
| QVQLVESGGGLVQAGGSLRLSCAASGYTISRYAMGWYIQAHGKERQLVAAISSRGGSTYYADSVKGRFTISRDNAKNTVYLQMNSLNPEDTADYYWAEDYGVGYGIVGSYYWGQGTQVTVSS | high polyreactivity |
| QVQLVESGGGLVQAGGSLRLSCAASGSTFPYYAMGWYRQAPGKERELVAAITSGGSTNYADSVKGRFTISRDNAKNTVYLQMNSLKPEDTAVYYCNAEWRRRYTYLRRVYYGFDYWGQGTQVTVSS | high polyreactivity |
| QVQLVESGGGLVQAGGSLRLSCAASGSTFGTNAMGWYRQAPGKEREFVASIRKSGGSTYYADSVKGRFTISRDNSKNTVYLQMNSLKPEDTAVYYCAAVYRRYLGGGYDYWGQGTQVTVSS | high polyreactivity |
| QVQLVESGGGLVQAGGSLRLSCAASGRTFYGYAIGRYIQAPGNERELVAAISRRGGSTNYADSVKGRFTISRDNAKNTVFLQMNSLKPEDTAVYYCNANYYRTHYDYWGQGTQVTVSS | high polyreactivity |
| QVQLVESGGGLVQAGGSLRLTSAASGRTFFRYAMRWYRQAPGKERELVAAISRGGGRTYYADSVKGRFTISRDNAKNTVYLQMNSLKPEDTAVYYCNKTERSGSNYLGQGTQVTVSS | high polyreactivity |
| QVQLQESGGGLVKAGGSLRLSCAASGNISPRDAMGWYRQAPGEERDLVASNAYSAITYYADGVKGRYTISRDNAKNTVYLQMNSLKPEDTVVYYCAVYQFTYPVFPAYWGQGTQVTVSS | low polyreactivity |
| QVQLVESGGGLVQAGGSLRLSCAASGSTFGYNAMGWYRQAPGKEREFVAAITRRGGNTYYADSVKGRFTISRDNAKNTVYLQMNSLKPEDTAVYYCAARYLQGRYDYWGQGTQVTVSS | high polyreactivity |
| QVQLVESGGGLVQAGGSLRLSCAASGRTFNGYAMGWYRQAPGKERELVASISWSGGRTYYADSVKGRFTISRDNAKNTVYLQMNSLIPEDTAVYYCNAYYYRVPRPWFDYWGQGTQVTVSS | high polyreactivity |
| QVQLVEPGGGLVQAGGSLRLSCAASGSTFTLYAMGWYRQAPGKERELVATLTGSAGSTNYADSVKGRFTISRDNAKNTVYLQMNSLKPEDTAVYYCAKRVQQSTWYGYGIGYEYWGQGTQVTVSS | high polyreactivity |
| QVQLVESGGGLVQAGGSLRLSCYASGGTFRWYAMGWSRQAPGKERELVAAISYSGGPTYADSVKGRFTISRDNAKNTVYLQMNSLKPEDTAVYYCNAVRYITHYDYWGQGTQVTVSS | high polyreactivity |
| QVHLVESGGGLVQAGGSLRLSCAASGFIFEPYAMGCYRQAPWKEWELVAAISSGGSTYADSVKGRFTISRDNAKNTVYLQMISLKPEDTAVYYCAADSYYSVWGFYFWGQGTQVTVSS | low polyreactivity |
| QVQLVESGGGLVQAGGSLRLSCDASVSIFVANAMGWSRQATGKERELVAAITGRGSRTYYADSVKGRFTISRDNAKNTVYLQMNSLKPEDTAVYYCADRYTNYGGYYWGQGTQVTVSS | high polyreactivity |

| Sequence | polyreactivity (PSR sort gate) |
| --- | --- |
| QVQLVESGGGLVQAGGSLRLSCAASGYIFYAYAMGWYRQAPGKERELVAAISSGGGRTYYADSVKGRFTISRDNAKNTVYLQMNSLKPEDTAVYYCAARRRDRGEYYYWGQGTQVTVSS | high polyreactivity |
| QVQLVESGGGLVQAGGSLRLSCAASGITFRGYAMGWYRQAPGKERELVASITNTDSTYYADSVKGRFTISRDNAKNTVYLQMNSLKPEDTAVYYCAARRGRKYGYWGQGTQVTVSS | high polyreactivity |
| QVQLVESGGGLVQAGGSLRLSCAASRITLNRNAMGWYRQAPGKERELVARISRRGGTTYYADSVKGRFTISRDNENNTVYLQMNSLKPEDTAVYYFNAGPYGGNPFDYWGQGPQVTVSS | high polyreactivity |
| QVQLVESGGGLVQAGGSLRLSCAASGIIFQSYTMGWYRPATGKERELVAAIDSGGSTYYADSVKGRFTISRDNAKNTVYLQMNSLKREDTAVYYCAAEPDTYWYTFYYWGQGTQVTVSS | low polyreactivity |
| QVQLVESGGGLVQAGGSLRLSCAASGRILWNAMGWYRQAPGKERELVAGITYSGGSTYYADSVKGRFTISRDNAKNTVYLQMNSLKPEDTAVYYCNAGVGARESDYWGQGTQVTVSS | low polyreactivity |
| QVQLVESGGGLVQAGGSLRLSGAASGFTFGRNAMGGYRQAPGKEREFVAAISKSATSKYYADSVKGRFTISRDNAKNTVYLQMNSLKPEDTSVYYCARTNYAKRWDFDYWGQGTQVTVSS | low polyreactivity |
| QVQLVESGGGLVPAGGSLRLSCAASGSIFTNAMGWYRQAPGKERELVAAIDANAGDTHYADSVKGRFTISRDNAKNTVYLQMNSLKPEDTAVYSCNADVTERLWTGEDDYWGQGTQVTVSS | low polyreactivity |
| QVQLVESGGGLVQAGGSLRLSCAASGRIFVRNAMGWYRQAPGKERELVAAITRTGASTYYADSVKGRFTISRDNAKNTVYLQMNSLKPDDTAVYYCAAVWGWPYWVYRYDYWGQGTQVTVSS | high polyreactivity |
| QVQLVESGGGLVQAGGSLRLSCAASGFIFSNNAMGWYRQAPGKERELVAVINGGGSTYYADSVKGRFTISRDNAKNTVYLQMNSLKPEDTAFYYCARKSWPKERRVDPGYDYWGQGTQVTVSS | low polyreactivity |
| QVQLVESGGGLVQAGGSLRLSCAASGRILGRYAMGWYRQEPGKERELVASIRGGGSTNYADSVKGRFTISRDNAKNTVYLQMNSLKPEDTAVYYCAKDYDVRVYEYNYWGQGTQVTVSS | low polyreactivity |
| QVQLVESGGGLVQAGGSLRLSCAASGIIFGEYAMGWYRQAPGKERELVAAISQSGGTYYADSVKGRFTISRDNAKNTVYLQMNSLKPEDTAVYYCNADYWAYISRVRYDYWGQGTQVTVSS | low polyreactivity |
| QVQLVESGGGIVQAGGSLRLSCAASGRIFDEYAMGWYRLAPGKERELVAAITYSAGSTYYADSVKGRFTISRDNAKNTVYLQMNSLKPEDTAVYYCAADRYYWWWYTYNYWGQGTQVTVSS | low polyreactivity |
| QVQLVESGGVLVQSGGSLRLSCAASGSTFAYYAMGWYRQAPGKERELVAPISWSGGSTYYADSVKVRFTISRDNAKNTVYLQMNSLNPEDTAVYYCNKRNVLDYDYWGQGTQVTVSS | low polyreactivity |
| QVQLVESGGGLVQAGGSLRLSCAASGRTFGFYAMGWYRQAPGKERELVAGINNRGSGTYYADSVKGRFTISRDNAKNTVYLLMNSLKPEDTAVYYCAAGRRAKSRTWVNIRYDYWGQGTQVTVST | high polyreactivity |
| QVQLVESGGGLVQAGGSLSLSCAASGIIFYDYAMGWYRQAPGKERELVAVISRSGGSTYYADSVKGRFTISRDNAKNTVYLQMNSLNPEDTAVYYCARAYSLRVVTGDYWGQGTQVTVSS | high polyreactivity |
| QVQLVETGGGLVQAGGSLRLSCAPSGRILYGYAMGWYRQAPGKERELVASITWSGGSTYADSVKGRFTISRDNAKNTVYLQMNSLKPEDTAVYFCATRRGPKWQWLTYGYWGQGTQVTVSS | low polyreactivity |
| QVQLVESGGGLVQAGGSLRLSCAASGYIFYFNAMGWYRQAPGKERELVAVISDRDDSTYYADSVKGRFTISRDNAKNTVYLQMNSLKPEDTAVYYCAADGDTYVDDPYDYWGQGTQVTVSS | low polyreactivity |
| QVQLVESGGGLVQAGGSLRLSCAASGFIFPSNAMGWYRQAPGKERELVAAISSRGTRTYYADSVKGRFTISRDNAKNTVYLQMNSLKPEDTAVYYCAKYGYWGQGTQVTVSS | high polyreactivity |
| QVQLVESGGGLVQAGGSLRLSCAASGRIFKRYAMGWYRQAPGKERELVAAISKSGGSTYYADSVKGRFTISRDNAKNTVYLQMNSLKPEDTAVYYCNADPVRSGLDYWGQGTQVTVSS | high polyreactivity |
| QVQLVESGGGLVQAGGSLRLSCAASGRTLSVYAMGWYRQAPGKERELVAAITKSGGSTYYADSVKGRFTISRDNAKNTVYLQMNSLKPEDTAVYYCAAEGDWRGYALYNYWGQGTQVTVSS | low polyreactivity |
| QVQLVESGGGLVHAGGSLRLSCAASGSTFYGYTMGWYRQAPGKERELVAVITSGGSTYYADSVKGRFTISRDNAKNTVYLQMNSLKPEDTAVYYCAKRYGYPAYGRPWRIGRTYDYWGQGTQVTVSS | low polyreactivity |
